In US20240382610A1 (TALLAC THERAPEUTICS, published 2024):

T1: Human nectin-4 ECD-6His (TNT-175) (human, UniProt Q96NY8 32-349)
T1 construct: the entry holds the extracellular domain with the C-terminal 6His tag
T1 sequence: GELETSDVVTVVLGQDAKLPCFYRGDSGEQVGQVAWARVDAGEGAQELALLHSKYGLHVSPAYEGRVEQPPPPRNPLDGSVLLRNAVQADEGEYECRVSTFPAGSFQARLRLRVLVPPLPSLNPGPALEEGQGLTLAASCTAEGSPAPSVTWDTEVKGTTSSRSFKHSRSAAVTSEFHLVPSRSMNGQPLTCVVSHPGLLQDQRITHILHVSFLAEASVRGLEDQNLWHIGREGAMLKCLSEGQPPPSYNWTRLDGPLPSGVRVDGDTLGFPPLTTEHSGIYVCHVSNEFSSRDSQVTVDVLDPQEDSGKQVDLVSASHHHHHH

T2: human nectin-4 on cells (human, UniProt Q96NY8 32-510)
T2 construct: whole, on cells; also called PVRL4
T2 sequence (looked up): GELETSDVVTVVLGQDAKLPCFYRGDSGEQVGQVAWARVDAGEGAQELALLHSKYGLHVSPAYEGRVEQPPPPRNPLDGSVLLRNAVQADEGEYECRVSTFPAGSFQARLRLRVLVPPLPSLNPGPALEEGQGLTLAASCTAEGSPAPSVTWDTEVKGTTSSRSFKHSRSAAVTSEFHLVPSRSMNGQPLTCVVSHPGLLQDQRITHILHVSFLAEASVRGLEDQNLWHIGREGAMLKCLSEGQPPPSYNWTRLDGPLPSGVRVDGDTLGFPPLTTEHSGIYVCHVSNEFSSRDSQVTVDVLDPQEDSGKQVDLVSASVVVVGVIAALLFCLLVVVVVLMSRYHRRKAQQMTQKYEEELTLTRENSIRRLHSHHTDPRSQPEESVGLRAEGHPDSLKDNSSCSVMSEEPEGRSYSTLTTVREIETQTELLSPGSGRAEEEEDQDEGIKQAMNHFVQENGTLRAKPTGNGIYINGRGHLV

B1: TNT-196 (antibody, mouse IgG2a, kappa)
heavy: EVQLVESGGGLVQPGGSLRLSCAASGFTFSDYYMSWIRQAPGKGLEWVSGISWNSGSIGYADSVKGRFTISRDNSKNTLYLQMNSLRAEDTAVYYCASSGSWYLPLDYWGQGTLVTVSSAKTTAPSVYPLAPVCGDTTGSSVTLGCLVKGYFPEPVTLTWNSGSLSSGVHTFPAVLQSDLYTLSSSVTVTSSTWPSQSITCNVAHPASSTKVDKKIEPRGPTIKPCPPCKCPAPNLLGGPSVFIFPPKIKDVLMISLSPIVTCVVVDVSEDDPDVQISWFVNNVEVHTAQTQTHREDYNSTLRVVSALPIQHQDWMSGKEFKCKVNNKDLPAPIERTISKPKGSVRAPQVYVLPPPEEEMTKKQVTLTCMVTDFMPEDIYVEWTNNGKTELNYKNTEPVLDSDGSYFMYSKLRVEKKNWVERNSYSCSVVHEGLHNHHTTKSFSRTPGRPQGFGPP
light: DIQMTQSPSSLSASVGDRVTITCQASQDISNYLNWYQQKPGKVPKLLIYAASTLQSGVPSRFSGSGSGTDFTLTISSLQPEDFATYYCQQSYSTPLTFGGGTKVEIKRADAAPTVSIFPPSSEQLTSGGASVVCFLNNFYPKDINVKWKIDGSERQNGVLNSWTDQDSKDSTYSMSSTLTLTKDEYERHNSYTCEATHKTSTSPIVKSFNRNEC
B2: TNT-153 (antibody, mouse IgG2a, kappa)
heavy: EVQLVESGGGLVQPGGSLRLSCAASGFTFSSYNMNWVRQAPGKGLEWVSYISSSSSTIYYADSVKGRFTISRDNAKNSLSLQMNSLRDEDTAVYYCARAYYYGMDVWGQGTTVTVSSAKTTAPSVYPLAPVCGDTTGSSVTLGCLVKGYFPEPVTLTWNSGSLSSGVHTFPAVLQSDLYTLSSSVTVTSSTWPSQSITCNVAHPASSTKVDKKIEPRGPTIKPCPPCKCPAPNLLGGPSVFIFPPKIKDVLMISLSPIVTCVVVDVSEDDPDVQISWFVNNVEVHTAQTQTHREDYNSTLRVVSALPIQHQDWMSGKEFKCKVNNKDLPAPIERTISKPKGSVRAPQVYVLPPPEEEMTKKQVTLTCMVTDFMPEDIYVEWTNNGKTELNYKNTEPVLDSDGSYFMYSKLRVEKKNWVERNSYSCSVVHEGLHNHHTTKSFSRTPGLLQGG
light: DIQMTQSPSSVSASVGDRVTITCRASQGISGWLAWYQQKPGKAPKFLIYAASTLQSGVPSRFSGSGSGTDFTLTISSLQPEDFATYYCQQANSFPPTFGGGTKVEIKRADAAPTVSIFPPSSEQLTSGGASVVCFLNNFYPKDINVKWKIDGSERQNGVLNSWTDQDSKDSTYSMSSTLTLTKDEYERHNSYTCEATHKTSTSPIVKSFNRNEC

Columns and labels:
[1] = biological target: T1, Human nectin-4 ECD-6His (TNT-175); experiment: competition ELISA; nectin-4 ECD premixed with TNT201, captured by the coat antibody; % of signal without premix antibody
Method: (§1) Competition experiments of nectin-4 antibodies. ELISA plates were coated overnight at 4° C. with goat anti-mouse IgG at […] in PBS. […] As positive control, nectin-4 was diluted at same concentrations without a premix antibody. Two wells per plate were allocated for diluent only as negative/background control. Plates were washed as previously, 50 μL/well of premix was added to each plate and incubated for one hour. Plates were washed then incubated at room temperature for one hour with Rabbit anti 6× HIS HRP diluted 1:4,000 in diluent. Plates were washed once more and incubated at room temperature for 20 minutes with 50 μL/well of ABTS substrate. […] Binding was measured as an Optical Density (O.D.) value normalized to background and calculated as a percentage of positive control at the lowest nectin-4 dilution for greatest resolution.

[2] = biological target: T1, Human nectin-4 ECD-6His (TNT-175); experiment: competition ELISA; nectin-4 ECD premixed with TNT205, captured by the coat antibody; % of signal without premix antibody
Method: as §1

[3] = biological target: T1, Human nectin-4 ECD-6His (TNT-175); experiment: competition ELISA; nectin-4 ECD premixed with TNT211, captured by the coat antibody; % of signal without premix antibody
Method: as §1

[4] = biological target: T1, Human nectin-4 ECD-6His (TNT-175); experiment: competition ELISA; nectin-4 ECD premixed with TNT210, captured by the coat antibody; % of signal without premix antibody
Method: as §1

[5] = biological target: T1, Human nectin-4 ECD-6His (TNT-175); experiment: competition ELISA; nectin-4 ECD premixed with TNT206, captured by the coat antibody; % of signal without premix antibody
Method: as §1

[6] = biological target: T1, Human nectin-4 ECD-6His (TNT-175); experiment: SPR ProteOn, mAb on protein A
Method: Initial testing of binding of nectin-4 antibodies to nectin-4. […] Biotinylated protein A (15 μg/mL) was immobilized to the surface of an NLC chip. 30 nM of purified mAb supernatant was diluted in PBS-T and captured over the protein A surface. Serial dilutions of human nectin-4 were injected over the mAb-coated chips, and binding kinetics were determined. Chips were regenerated using 4:1 v/v of IgG elution butter/4M NaCl.

[7] = biological target: T1, Human nectin-4 ECD-6His (TNT-175); experiment: competition ELISA; nectin-4 ECD premixed with TNT204, captured by the coat antibody; % of signal without premix antibody
Method: as §1

[8] = biological target: T1, Human nectin-4 ECD-6His (TNT-175); experiment: competition ELISA; nectin-4 ECD premixed with TNT202, captured by the coat antibody; % of signal without premix antibody
Method: as §1

[9] = biological target: T1, Human nectin-4 ECD-6His (TNT-175); experiment: competition ELISA; nectin-4 ECD premixed with TNT208, captured by the coat antibody; % of signal without premix antibody
Method: as §1

[10] = biological target: T1, Human nectin-4 ECD-6His (TNT-175); experiment: competition ELISA; nectin-4 ECD premixed with TNT203, captured by the coat antibody; % of signal without premix antibody
Method: as §1

[11] = biological target: T1, Human nectin-4 ECD-6His (TNT-175); experiment: competition ELISA; nectin-4 ECD premixed with TNT207, captured by the coat antibody; % of signal without premix antibody
Method: as §1

[12] = biological target: T1, Human nectin-4 ECD-6His (TNT-175); experiment: competition ELISA; nectin-4 ECD premixed with TNT212, captured by the coat antibody; % of signal without premix antibody
Method: as §1

[13] = biological target: T2, human nectin-4 on cells; experiment: flow cytometry MFI, MNK74 (nectin-4 positive) over AGS (negative)
Method: Cell binding of nectin-4 antibodies. Cell binding of the nectin-4 antibodies was also assessed. MNK74 (nectin-4 positive) and AGS (nectin-4 negative) cells were obtained from ATCC and cultured according to their protocols. Cells were detached with TrypLE (Gibco) and washed by centrifugation for five minutes at 400×g with FACS buffer (PBS+2% FBS). Cells were resuspended in FACS buffer, plated in 96-well format (0.25 e6/well) then pelleted by centrifugation for five minutes at 400×g. Cells were stained at 4° C. in Fixable Viability Dye eFluor 506 (eBioscience) diluted 1:4,000 in PBS. […] Cells were centrifuged, washed once in FACS buffer and stained at 4° C. with Goat F(ab′)₂ anti-Mouse IgG APC (Southern Biotech) diluted 1:400 in FACS buffer for 30 minutes or appropriate anti-human IgG. Cells were centrifuged, washed twice and fixed in 0.5% paraformaldehyde. Cells were analyzed on Attune NxT Flow Cytometer (Thermo Fisher), with subsequent data analysis by Flowjo 10.7 (BD). Dead cells were excluded by gating on the eFluor 506-negative population. […] Binding was assessed by median fluorescent intensity.

[14] = biological target: T1, Human nectin-4 ECD-6His (TNT-175); experiment: competition ELISA; nectin-4 ECD premixed with TNT209, captured by the coat antibody; % of signal without premix antibody
Method: as §1

| Binder | % of Positive [1] | % of Positive [2] | % of Positive [3] | % of Positive [4] | % of Positive [5] | Kd [6] | koff [6] | kon [6] | % of Positive [7] | % of Positive [8] | % of Positive [9] | % of Positive [10] | % of Positive [11] | % of Positive [12] | Fold-change of binding to MNK74 compared to control AGS [13] | % of Positive [14] |
| --- | --- | --- | --- | --- | --- | --- | --- | --- | --- | --- | --- | --- | --- | --- | --- | --- |
| B1 | 0.9% | 35.9% | 13.8% | 1.5% | 5.5% | 15.2 nM | 0.0245 s⁻¹ | 1.62e+06 M⁻¹ s⁻¹ | 2.6% | 2.8% | 2% | 18.3% | 1.3% | 1.8% | 6 fold | 17.8% |
| B2 | 2.8% | 50% | 22.2% | 4% | 7.7% | 3.8 nM | 0.00399 s⁻¹ | 1.05e+06 M⁻¹ s⁻¹ | 4.2% | 3.6% | 3.5% | 28.8% | 2.2% | 5.6% | 7.4 fold | 26.2% |
